Source: patent US20240117334A1, “FACTOR B PROTEASES” (Vertex Pharmaceuticals Incorporated, priority 2021, published 2024)
Numbering of substitutions follows the chain as printed. Names and notes keep the numbering of the source.

B1: chymase C22S/P38Q/K40L/F41R/L99N/V138I/F173Y/D175T/A190S/V213A/S218V/A226R (enzyme)
chain: IIGGTESKPHSRPYMAYLEIVTSNGQSLRCGGFLIRRNFVLTAAHCAGRSITVTLGAHNITEEEDTWQKLEVIKQFRHPKYNTSTNHHDIMLLKLKEKASLTLAVGTLPFPSQFNFVPPGRMCRIAGWGRTGVLKPGSDTLQEVKLRLMDPQACSHYRTFDHNLQLCVGNPRKTKSSFKGDSGGPLLCAGVAQGIASYGRVDAKPPRVFTRISHYRPWINQILQAN
B2: chymase C22S/P38Q/K40M/F41R/V138I/F173L/D175N/A190S/V213A/S218L/A226R (enzyme)
chain: B1 chain with L28M, N86L, Y157L, T159N, V201L
B3: chymase C22S/P38Q/K40L/F41K/L99N/V138I/F173Y/D175S/A190S/V213A/S218I/A226R (enzyme)
chain: B1 chain with R29K, T159S, V201I
B4: chymase C22S/P38Q/K40A/F41R/L99Y/V138I/F173L/D175R/A190S/V213A/S218L/A226R (enzyme)
chain: B1 chain with L28A, N86Y, Y157L, T159R, V201L
B5: chymase C22S/P38Q/K40L/F41R/L99Q/V138I/F173Y/D175N/A190S/V213A/S218V/A226R (enzyme)
chain: B1 chain with N86Q, T159N
B6: chymase C22S/P38Q/K40M/F41R/L99Q/V138I/F173Y/D175N/A190S/V213A/S218V/A226R (enzyme)
chain: B1 chain with L28M, N86Q, T159N
B7: chymase C22S/P38Q/K40V/F41R/V138I/F173L/D175R/A190S/V213A/S218I/A226R (enzyme)
chain: B1 chain with L28V, N86L, Y157L, T159R, V201I
B8: chymase C22S/P38Q/K40M/F41T/V138I/D175R/A190S/V213A/S218I/A226R (enzyme)
chain: B1 chain with L28M, R29T, N86L, Y157F, T159R, V201I
B9: chymase C22S/P38Q/K40M/F41R/V138I/F173L/D175K/A190S/V213A/S218V/A226R (enzyme)
chain: B1 chain with L28M, N86L, Y157L, T159K
B10: chymase C22S/P38Q/K40M/F41R/L99Y/V138I/F173S/D175S/A190S/V213A/S218T/A226R (enzyme)
chain: B1 chain with L28M, N86Y, Y157S, T159S, V201T
B11: chymase C22S/P38Q/K40A/F41T/L99Y/V138I/F173S/D175H/A190S/V213A/S218I/A226R (enzyme)
chain: B1 chain with L28A, R29T, N86Y, Y157S, T159H, V201I
B12: chymase C22S/P38Q/K40A/F41R/V138I/F173L/D175R/A190S/V213A/S218L/A226R (enzyme)
chain: B1 chain with L28A, N86L, Y157L, T159R, V201L
B13: chymase C22S/P38Q/K40M/F41R/L99Y/V138I/F173L/D175Q/A190S/V213A/S218T/A226R (enzyme)
chain: B1 chain with L28M, N86Y, Y157L, T159Q, V201T
B14: chymase C22S/P38Q/K40A/F41Q/V138I/F173S/D175W/A190S/V213A/S218V/A226R (enzyme)
chain: B1 chain with L28A, R29Q, N86L, Y157S, T159W
B15: chymase C22S/P38Q/K40M/F41H/V138I/D175S/A190S/V213A/A226R (enzyme)
chain: B1 chain with L28M, R29H, N86L, Y157F, T159S, V201S
B16: chymase C22S/P38Q/K40V/F41R/V138I/F173L/D175N/A190S/V213A/S218V/A226R (enzyme)
chain: B1 chain with L28V, N86L, Y157L, T159N
B17: chymase C22S/P38Q/K40V/F41R/L99H/V138I/F173M/D175N/A190S/V213A/S218T/A226R (enzyme)
chain: B1 chain with L28V, N86H, Y157M, T159N, V201T
B18: chymase C22S/P38Q/K40L/F41R/V138I/F173L/D175R/A190S/V213A/S218V/A226R (enzyme)
chain: B1 chain with N86L, Y157L, T159R
B19: chymase C22S/P38Q/K40L/F41R/L99M/V138I/F173L/D175R/A190S/V213A/S218V/A226R (enzyme)
chain: B1 chain with N86M, Y157L, T159R
B20: chymase C22S/P38Q/K40A/F41R/L99H/V138I/F173M/D175T/A190S/V213A/S218I/A226R (enzyme)
chain: B1 chain with L28A, N86H, Y157M, V201I
B21: chymase C22S/P38Q/K40M/F41R/L99Y/V138I/F173L/D175S/A190S/V213A/S218T/A226R (enzyme)
chain: B1 chain with L28M, N86Y, Y157L, T159S, V201T
B22: chymase C22S/P38Q/K40A/F41R/L99H/V138I/F173Y/D175N/A190S/V213A/S218I/A226R (enzyme)
chain: B1 chain with L28A, N86H, T159N, V201I
B23: chymase C22S/P38Q/K40M/F41R/L99W/V138I/F173M/D175H/A190S/V213A/S218T/A226R (enzyme)
chain: B1 chain with L28M, N86W, Y157M, T159H, V201T
B24: chymase C22S/P38Q/K40M/F41H/L99H/V138I/D175S/A190S/V213A/S218V/A226R (enzyme)
chain: B1 chain with L28M, R29H, N86H, Y157F, T159S
B25: chymase C22S/P38Q/K40V/F41R/V138I/F173S/D175N/A190S/V213A/S218I/A226R (enzyme)
chain: B1 chain with L28V, N86L, Y157S, T159N, V201I
B26: chymase C22S/P38Q/K40L/F41R/L99F/V138I/F173L/D175N/A190S/V213A/A226R (enzyme)
chain: B1 chain with N86F, Y157L, T159N, V201S
B27: chymase C22S/P38Q/K40M/F41R/L99H/V138I/D175Q/A190S/V213A/S218V/A226R (enzyme)
chain: B1 chain with L28M, N86H, Y157F, T159Q
B28: chymase C22S/P38Q/K40L/F41R/V138I/F173Y/D175H/A190S/V213A/S218T/A226R (enzyme)
chain: B1 chain with N86L, T159H, V201T

Target: Human Factor B (human) (UniProt P00751)
Experiment: cell-based or functional assay

Human Factor B (human), sequence (P00751 26-764 limits assumed): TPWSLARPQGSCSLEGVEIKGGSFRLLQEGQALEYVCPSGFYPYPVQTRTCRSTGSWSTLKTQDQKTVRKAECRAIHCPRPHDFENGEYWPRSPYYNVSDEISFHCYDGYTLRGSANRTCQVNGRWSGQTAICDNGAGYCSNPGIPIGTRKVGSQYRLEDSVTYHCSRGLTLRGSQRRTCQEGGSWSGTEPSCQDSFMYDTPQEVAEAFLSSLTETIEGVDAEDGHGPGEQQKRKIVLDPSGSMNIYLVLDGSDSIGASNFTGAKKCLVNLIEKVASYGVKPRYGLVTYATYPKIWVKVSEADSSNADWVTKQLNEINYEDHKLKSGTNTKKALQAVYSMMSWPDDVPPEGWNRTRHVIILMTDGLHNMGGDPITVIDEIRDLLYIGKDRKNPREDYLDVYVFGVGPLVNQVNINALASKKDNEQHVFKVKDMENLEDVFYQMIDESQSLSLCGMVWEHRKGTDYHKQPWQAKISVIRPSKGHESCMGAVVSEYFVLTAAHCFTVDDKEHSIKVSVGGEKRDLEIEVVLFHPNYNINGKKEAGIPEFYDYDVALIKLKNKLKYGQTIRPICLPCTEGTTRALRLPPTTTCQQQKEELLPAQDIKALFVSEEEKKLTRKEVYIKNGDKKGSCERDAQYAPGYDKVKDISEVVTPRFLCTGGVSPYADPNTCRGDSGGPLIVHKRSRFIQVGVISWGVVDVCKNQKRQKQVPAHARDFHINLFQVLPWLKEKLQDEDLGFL

First: B1
Second: B2
The fB Cleavage EC50 of the first is 8.4-fold lower: 57.6 nM for the first, 482 nM for the second.

First: B3
Second: B4
The fB Cleavage EC50 of the first is 3.5-fold lower: 144 nM for the first, 511 nM for the second.

First: B5
Second: B6
The fB Cleavage EC50 of the first is 1.5-fold lower: 102 nM for the first, 157 nM for the second.

B7 and B8 are within 1.5-fold of each other in fB Cleavage EC50: 169 nM for the first, 218 nM for the second.

Going from B9 to B10, the fB Cleavage EC50 rises from 350 nM to 10600 nM (30-fold).

First: B11
Second: B12
The fB Cleavage EC50 of the first is 11-fold higher: 3130 nM for the first, 283 nM for the second.

B13 and B14 are within 1.5-fold of each other in fB Cleavage EC50: 1650 nM for the first, 2190 nM for the second.

Compared with B15, B16 is 3.8-fold lower in fB Cleavage EC50: 1060 nM for the first, 279 nM for the second.

Compared with B17, B18 is 5.7-fold lower in fB Cleavage EC50: 639 nM for the first, 113 nM for the second.

First: B19
Second: B20
The fB Cleavage EC50 of the first is 4.1-fold lower: 213 nM for the first, 882 nM for the second.

Compared with B21, B22 is 13-fold lower in fB Cleavage EC50: 1230 nM for the first, 92.9 nM for the second.

B23 and B24 are within 1.5-fold of each other in fB Cleavage EC50: 414 nM for the first, 277 nM for the second.

B25 and B26 are within 1.5-fold of each other in fB Cleavage EC50: 717 nM for the first, 631 nM for the second.

Compared with B27, B28 is 2.5-fold lower in fB Cleavage EC50: 301 nM for the first, 121 nM for the second.
